Values of other authors as cited in paper PMC4475429.

Biological target: PKA RIα (Homo sapiens) (UniProt P10644)
Sequence (P10644 whole entry): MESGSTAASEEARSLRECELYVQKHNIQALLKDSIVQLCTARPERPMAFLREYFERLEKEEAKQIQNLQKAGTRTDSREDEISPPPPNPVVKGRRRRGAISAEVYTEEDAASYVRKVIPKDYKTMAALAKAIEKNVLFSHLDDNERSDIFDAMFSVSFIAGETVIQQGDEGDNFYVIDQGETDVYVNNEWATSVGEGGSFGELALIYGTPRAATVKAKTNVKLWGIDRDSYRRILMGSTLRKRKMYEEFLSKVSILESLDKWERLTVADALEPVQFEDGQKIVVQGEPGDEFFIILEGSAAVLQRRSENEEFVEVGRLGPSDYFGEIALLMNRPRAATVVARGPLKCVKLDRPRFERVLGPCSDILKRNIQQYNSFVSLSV

Ht31, sequence (Q12802 whole entry): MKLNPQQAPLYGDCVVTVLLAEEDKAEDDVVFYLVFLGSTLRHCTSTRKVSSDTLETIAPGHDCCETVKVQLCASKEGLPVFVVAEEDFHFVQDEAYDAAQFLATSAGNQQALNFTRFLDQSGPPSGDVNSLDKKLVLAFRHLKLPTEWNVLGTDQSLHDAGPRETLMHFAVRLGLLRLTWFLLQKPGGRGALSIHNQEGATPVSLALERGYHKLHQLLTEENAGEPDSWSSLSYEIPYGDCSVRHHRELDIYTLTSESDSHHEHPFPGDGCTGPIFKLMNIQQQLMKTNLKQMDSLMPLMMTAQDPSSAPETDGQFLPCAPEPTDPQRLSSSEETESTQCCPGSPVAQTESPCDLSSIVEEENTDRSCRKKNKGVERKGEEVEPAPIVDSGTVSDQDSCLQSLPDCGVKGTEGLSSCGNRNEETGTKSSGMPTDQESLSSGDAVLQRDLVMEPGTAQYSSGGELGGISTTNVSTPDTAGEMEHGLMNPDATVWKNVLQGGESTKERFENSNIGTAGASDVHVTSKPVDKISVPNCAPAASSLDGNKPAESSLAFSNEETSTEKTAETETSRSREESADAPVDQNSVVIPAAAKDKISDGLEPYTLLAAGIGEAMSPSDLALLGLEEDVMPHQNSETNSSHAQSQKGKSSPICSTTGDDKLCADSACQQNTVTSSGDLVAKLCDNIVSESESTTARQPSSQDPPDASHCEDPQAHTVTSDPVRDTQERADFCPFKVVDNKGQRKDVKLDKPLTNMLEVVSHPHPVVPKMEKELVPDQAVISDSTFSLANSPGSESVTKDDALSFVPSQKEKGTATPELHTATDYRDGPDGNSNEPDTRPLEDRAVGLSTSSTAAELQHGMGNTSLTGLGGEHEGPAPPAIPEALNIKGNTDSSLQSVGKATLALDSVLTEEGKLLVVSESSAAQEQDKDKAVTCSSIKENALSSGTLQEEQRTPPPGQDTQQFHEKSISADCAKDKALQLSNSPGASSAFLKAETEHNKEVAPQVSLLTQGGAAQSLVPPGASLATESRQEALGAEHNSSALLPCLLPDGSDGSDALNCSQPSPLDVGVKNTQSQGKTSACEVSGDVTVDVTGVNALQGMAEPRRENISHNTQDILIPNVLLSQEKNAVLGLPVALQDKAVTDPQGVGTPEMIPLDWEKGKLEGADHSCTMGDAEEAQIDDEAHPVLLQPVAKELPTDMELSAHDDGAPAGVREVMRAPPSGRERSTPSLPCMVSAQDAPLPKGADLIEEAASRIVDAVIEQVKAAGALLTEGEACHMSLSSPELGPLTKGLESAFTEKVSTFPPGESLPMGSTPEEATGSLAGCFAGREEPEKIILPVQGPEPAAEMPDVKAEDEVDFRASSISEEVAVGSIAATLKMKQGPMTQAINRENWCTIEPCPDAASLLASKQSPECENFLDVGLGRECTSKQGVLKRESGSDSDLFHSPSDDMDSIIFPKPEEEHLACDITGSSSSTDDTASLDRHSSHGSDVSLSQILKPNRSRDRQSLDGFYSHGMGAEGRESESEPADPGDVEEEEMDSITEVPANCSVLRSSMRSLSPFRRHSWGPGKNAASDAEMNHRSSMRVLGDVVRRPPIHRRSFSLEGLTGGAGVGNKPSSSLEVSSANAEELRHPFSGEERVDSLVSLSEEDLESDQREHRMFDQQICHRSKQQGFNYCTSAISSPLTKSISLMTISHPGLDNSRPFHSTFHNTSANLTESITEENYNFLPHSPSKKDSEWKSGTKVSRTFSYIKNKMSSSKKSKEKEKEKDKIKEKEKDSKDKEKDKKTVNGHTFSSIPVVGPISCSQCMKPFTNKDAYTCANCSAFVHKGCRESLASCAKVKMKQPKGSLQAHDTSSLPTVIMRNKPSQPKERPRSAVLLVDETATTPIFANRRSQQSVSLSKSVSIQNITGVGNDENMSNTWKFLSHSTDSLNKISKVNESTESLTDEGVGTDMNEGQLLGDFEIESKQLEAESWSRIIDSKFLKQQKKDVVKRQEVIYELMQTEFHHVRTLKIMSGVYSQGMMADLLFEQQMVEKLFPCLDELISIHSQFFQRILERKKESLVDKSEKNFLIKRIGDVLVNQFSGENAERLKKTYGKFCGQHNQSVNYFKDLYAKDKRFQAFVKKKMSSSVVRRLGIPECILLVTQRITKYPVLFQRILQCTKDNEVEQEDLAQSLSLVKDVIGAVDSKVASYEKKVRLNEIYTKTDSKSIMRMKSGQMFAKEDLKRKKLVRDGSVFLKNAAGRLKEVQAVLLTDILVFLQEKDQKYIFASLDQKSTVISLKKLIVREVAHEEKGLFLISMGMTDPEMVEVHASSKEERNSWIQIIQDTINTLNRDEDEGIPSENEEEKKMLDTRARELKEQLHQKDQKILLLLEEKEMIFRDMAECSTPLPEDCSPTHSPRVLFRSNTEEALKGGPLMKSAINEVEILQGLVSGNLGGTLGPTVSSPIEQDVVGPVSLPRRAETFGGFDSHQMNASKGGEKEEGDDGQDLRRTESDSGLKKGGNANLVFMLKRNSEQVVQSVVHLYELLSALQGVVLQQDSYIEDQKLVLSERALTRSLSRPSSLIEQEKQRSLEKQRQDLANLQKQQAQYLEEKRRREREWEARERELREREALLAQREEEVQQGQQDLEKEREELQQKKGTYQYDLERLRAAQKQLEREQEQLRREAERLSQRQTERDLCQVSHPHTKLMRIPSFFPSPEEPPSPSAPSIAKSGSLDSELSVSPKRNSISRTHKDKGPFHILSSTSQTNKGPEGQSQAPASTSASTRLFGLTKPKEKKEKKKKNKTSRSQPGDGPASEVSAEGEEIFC

Kd: 2100 nM
Substance: Ht31 (from UniProt Q12802)
